Common to all, as to assay: cross-linking; in vivo BMOE cross-link of cysteine pairs in exponentially grown yeast cells (on ice, 6 min); Scc1-PK immunoprecipitated, western blot
Common to all, as to details: partners not purified
Background: In western blotting, separated proteins are transferred to a membrane and probed.

One assay concerns the target T1, Smc3^QQ R1222C (S. cerevisiae, UniProt P47037 1-1230, K112Q | K113Q | R1222C).
T1 construct: Smc3, S. cerevisiae; source: S. cerevisiae W303, in vivo, whole-cell extract
T1 sequence (looked up): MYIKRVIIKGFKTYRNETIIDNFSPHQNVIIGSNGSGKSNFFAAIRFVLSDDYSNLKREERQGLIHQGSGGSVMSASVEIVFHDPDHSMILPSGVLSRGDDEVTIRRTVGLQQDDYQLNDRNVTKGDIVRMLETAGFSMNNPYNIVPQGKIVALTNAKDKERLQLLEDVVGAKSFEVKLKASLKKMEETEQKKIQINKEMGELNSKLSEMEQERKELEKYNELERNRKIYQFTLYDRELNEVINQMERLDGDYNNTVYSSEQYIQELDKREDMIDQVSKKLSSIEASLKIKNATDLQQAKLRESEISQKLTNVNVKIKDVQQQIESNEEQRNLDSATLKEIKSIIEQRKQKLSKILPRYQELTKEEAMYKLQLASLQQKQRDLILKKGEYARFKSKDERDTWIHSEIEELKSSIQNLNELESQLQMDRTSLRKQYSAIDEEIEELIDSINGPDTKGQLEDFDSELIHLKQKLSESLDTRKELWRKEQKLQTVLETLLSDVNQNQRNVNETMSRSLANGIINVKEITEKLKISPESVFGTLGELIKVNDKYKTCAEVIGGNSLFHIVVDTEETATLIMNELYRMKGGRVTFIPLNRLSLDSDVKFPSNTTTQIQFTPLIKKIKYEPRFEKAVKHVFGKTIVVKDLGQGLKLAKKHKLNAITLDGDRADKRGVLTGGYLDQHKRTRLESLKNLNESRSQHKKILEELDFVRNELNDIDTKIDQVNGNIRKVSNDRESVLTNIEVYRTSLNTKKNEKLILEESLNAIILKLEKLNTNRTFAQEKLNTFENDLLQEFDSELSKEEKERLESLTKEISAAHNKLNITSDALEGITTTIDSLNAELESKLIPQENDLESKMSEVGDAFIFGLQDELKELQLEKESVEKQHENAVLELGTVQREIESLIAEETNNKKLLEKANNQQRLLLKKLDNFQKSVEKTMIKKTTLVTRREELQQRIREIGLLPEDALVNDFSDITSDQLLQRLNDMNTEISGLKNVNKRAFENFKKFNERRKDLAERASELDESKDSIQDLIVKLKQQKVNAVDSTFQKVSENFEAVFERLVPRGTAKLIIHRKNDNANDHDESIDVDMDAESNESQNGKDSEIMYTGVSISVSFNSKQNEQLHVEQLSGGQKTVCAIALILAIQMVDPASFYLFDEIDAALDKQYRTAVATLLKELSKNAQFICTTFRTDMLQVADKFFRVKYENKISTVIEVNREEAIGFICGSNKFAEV

A further assay addresses T2, Smc3 R1222C (S. cerevisiae, UniProt P47037 1-1230, R1222C).
T2 construct: Smc3, S. cerevisiae; source: S. cerevisiae W303, in vivo, whole-cell extract
T2 sequence (looked up): T1 sequence (looked up) with Q112K, Q113K

The target of another assay is T3, Smc3 K38I R1222C (S. cerevisiae, UniProt P47037 1-1230, K38I | R1222C).
T3 construct: source: S. cerevisiae W303, in vivo, whole-cell extract
T3 sequence (looked up): T1 sequence (looked up) with K38I, Q112K, Q113K

Numbering of substitutions follows the chain as printed.

B1: Smc1 N1192C (natural protein, S. cerevisiae, UniProt P32908 1-1225, looked up)
chain: MGRLVGLELSNFKSYRGVTKVGFGESNFTSIIGPNGSGKSNMMDAISFVLGVRSNHLRSNILKDLIYRGVLNDENSDDYDNEGAASSNPQSAYVKAFYQKGNKLVELMRIISRNGDTSYKIDGKTVSYKDYSIFLENENILIKAKNFLVFQGDVEQIAAQSPVELSRMFEEVSGSIQYKKEYEELKEKIEKLSKSATESIKNRRRIHGELKTYKEGINKNEEYRKQLDKKNELQKFQALWQLYHLEQQKEELTDKLSALNSEISSLKGKINNEMKSLQRSKSSFVKESAVISKQKSKLDYIFKDKEKLVSDLRLIKVPQQAAGKRISHIEKRIESLQKDLQRQKTYVERFETQLKVVTRSKEAFEEEIKQSARNYDKFKLNENDLKTYNCLHEKYLTEGGSILEEKIAVLNNDKREIQEELERFNKRADISKRRITEELSITGEKLDTQLNDLRVSLNEKNALHTERLHELKKLQSDIESANNQEYDLNFKLRETLVKIDDLSANQRETMKERKLRENIAMLKRFFPGVKGLVHDLCHPKKEKYGLAVSTILGKNFDSVIVENLTVAQECIAFLKKQRAGTASFIPLDTIETELPTLSLPDSQDYILSINAIDYEPEYEKAMQYVCGDSIICNTLNIAKDLKWKKGIRGKLVTIEGALIHKAGLMTGGISGDANNRWDKEEYQSLMSLKDKLLIQIDELSNGQRSNSIRAREVENSVSLLNSDIANLRTQVTQQKRSLDENRLEIKYHNDLIEKEIQPKITELKKKLDDLENTKDNLVKEKEALQNNIFKEFTSKIGFTIKEYENHSGELMRQQSKELQQLQKQILTVENKLQFETDRLSTTQRRYEKAQKDLENAQVEMKSLEEQEYAIEMKIGSIESKLEEHKNHLDELQKKFVTKQSELNSSEDILEDMNSNLQVLKRERDGIKEDIEKFDLERVTALKNCKISNINIPISSETTIDDLPISSTDNEAITISNSIDINYKGLPKKYKENNTDSARKELEQKIHEVEEILNELQPNARALERYDEAEGRFEVINNETEQLKAEEKKILNQFLKIKKKRKELFEKTFDYVSDHLDAIYRELTKNPNSNVELAGGNASLTIEDEDEPFNAGIKYHATPPLKRFKDMEYLSGGEKTVAALALLFAINSYQPSPFFVLDEVDAALDITNVQRIAAYIRRHRNPDLQFIVISLKCTMFEKSDALVGVYRQQQENSSKIITLDLSNYAE
notes: Smc1, S. cerevisiae; source: S. cerevisiae W303, in vivo, whole-cell extract
With B1, the crosslinking efficiency with Smc3^QQ R1222C is 24%; with Smc3 R1222C, about 23%; in the assay with Smc3 K38I R1222C it was 5%.

The values above are taken from paper PMC10516938, “Conformational dynamics of cohesin/Scc2 loading complex are regulated by Smc3 acetylation and ATP binding” (Nature Communications, 2023).
